The target of the test is T1, full-length Spike of SARS-CoV-2 on transfected 293T cells (SARS-CoV-2, UniProt P0DTC2).
T1 construct: also called Spike-expressing cells; Wuhan-hu-1 Spike
As to the kind of experiment: flow cytometry on cells. Conditions: one partner purified.

B1: Ab159 (antibody, V domains shown)
VH: QVQLVESGGGLVKPGGSLRLSCAASGFTFNNAWMSWVRQAPGKGLEWVGRIKSKTDGGTTDYAAPVKGRFTFSRDDSKNTLYLQMSSLKTEDTALYYCTTADYDILTGTPASPYWGQGTLVTVSS
VL: DIQMTQSPSSLSASVGDRVTITCRASQSITNYLNWYQQKPGKAPKFLIYAASSLQGGVPSRFRGSGSGTDFTLTISSLQPEDFATYYCQQTYSTLWTFGQGTKVEIK
notes: copies: 2 + 2
With B1, the binding result is given as “binds”.

The values above are taken from paper PMC9664764 (iScience, 2022).
